Measured values published in patent publication US20260152753.

System: κ-casein (in skim milk)

PEP4 aspartyl protease of the Pichia pastoris host cell
SDS electrophoresis after 24 hours at 5 °C, 0.5% b-lactoglobulin from a pep4-containing host, heated and unheated: the k-casein peak in both the heated and unheated samples had markedly reduced in size and a peak in the position expected for para-k-casein was present | SDS-PAGE of heated skim milk with B-lac from a pep4-containing host: κ-casein band and para-κ-casein band: the band intensity of the k-casein band decreased and a peptide band consistent with that of para-k-casein appeared | SDS-PAGE of unheated skim milk with B-lac from a pep4-containing host: κ-casein band and para-κ-casein band: the band intensity of the k-casein band decreased and a peptide band consistent with that of para-k-casein appeared | lab-on-a-chip para-κ-casein peak area 24 h after 80 °C/30 min treatment, sample B-lac 1A (start: 0): After 24 hours, the peak area was 115.2 and 35.82 for κ-casein and para-κ-casein, respectively | lab-on-a-chip para-κ-casein peak area 24 h after 120 °C/10 min treatment, sample B-lac 1A (start: 0): After 24 hours, the peak area was 179.4 and 16.12 for κ-casein and para-κ-casein, respectively | lab-on-a-chip peak area of para-κ-casein formed at 24 h at 5 °C, sample B-lac 1A (0 h: 0): 147 peak area | lab-on-a-chip peak area of para-κ-casein formed at 24 h at 5 °C, sample B-lac 1B (0 h: 0): 56.1 peak area | lab-on-a-chip κ-casein peak area 24 h after 80 °C/30 min treatment, sample B-lac 1A (start: 249.48): After 24 hours, the peak area was 115.2 and 35.82 for κ-casein and para-κ-casein, respectively | lab-on-a-chip κ-casein peak area 24 h after 120 °C/10 min treatment, sample B-lac 1A (start: 249.6): After 24 hours, the peak area was 179.4 and 16.12 for κ-casein and para-κ-casein, respectively | lab-on-a-chip κ-casein peak area at 24 h at 5 °C, sample B-lac 1A (0 h: 255): 91.5 (64% degraded) | lab-on-a-chip κ-casein peak area at 24 h at 5 °C, sample B-lac 1B (0 h: 253.98): 138.72 (46% degraded) | microfluidic chip SDS-PAGE of skim milk with about 1% B-Lac 1A held 0, 24 or 48 hours at room temperature: showed evidence of proteolysis on storage with a decrease in the band associated with k-casein, and a new peptide peak appearing | κ-casein degraded 24 h after 80 °C/30 min treatment, sample B-lac 1A: indicating that κ-casein had degraded by 54% | κ-casein degraded 24 h after 120 °C/10 min treatment, sample B-lac 1A: indicating that κ-casein had degraded by 72% | κ-casein degraded after 24 h at 5 °C, sample B-lac 1A: 91.5 (64% degraded) | κ-casein degraded after 24 h at 5 °C, sample B-lac 1B: 138.72 (46% degraded)
